doi:10.1101/2020.10.25.354415 (bioRxiv, 2020)
Where a chain is given by its changes, count along the chain named. Numbers in names are those of the source.

T1: β-catenin•N-cadherin cytoplasmic tail complex (M. musculus | , UniProt Q02248 1-781; P15116 746-906)
T1 sequence (looked up) 1: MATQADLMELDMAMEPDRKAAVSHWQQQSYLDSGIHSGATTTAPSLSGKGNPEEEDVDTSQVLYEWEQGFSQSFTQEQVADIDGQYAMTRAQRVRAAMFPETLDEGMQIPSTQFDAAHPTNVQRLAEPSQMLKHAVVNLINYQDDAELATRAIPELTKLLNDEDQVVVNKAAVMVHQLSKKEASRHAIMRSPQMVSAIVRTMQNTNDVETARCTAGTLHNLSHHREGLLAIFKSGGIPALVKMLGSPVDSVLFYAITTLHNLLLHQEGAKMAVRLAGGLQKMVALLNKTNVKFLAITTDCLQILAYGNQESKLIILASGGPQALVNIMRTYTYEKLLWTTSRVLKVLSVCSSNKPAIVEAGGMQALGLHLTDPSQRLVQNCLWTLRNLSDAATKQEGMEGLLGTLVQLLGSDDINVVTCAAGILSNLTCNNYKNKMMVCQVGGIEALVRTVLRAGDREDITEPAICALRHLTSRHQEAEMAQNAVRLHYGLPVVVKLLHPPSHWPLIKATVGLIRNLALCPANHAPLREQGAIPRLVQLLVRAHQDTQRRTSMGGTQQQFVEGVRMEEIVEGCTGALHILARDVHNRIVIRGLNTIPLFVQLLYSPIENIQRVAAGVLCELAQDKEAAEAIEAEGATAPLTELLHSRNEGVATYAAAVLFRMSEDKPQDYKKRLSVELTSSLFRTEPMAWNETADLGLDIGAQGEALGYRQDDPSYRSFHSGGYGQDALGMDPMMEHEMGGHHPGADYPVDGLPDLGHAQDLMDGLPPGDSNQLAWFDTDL
T1 sequence (looked up) 2: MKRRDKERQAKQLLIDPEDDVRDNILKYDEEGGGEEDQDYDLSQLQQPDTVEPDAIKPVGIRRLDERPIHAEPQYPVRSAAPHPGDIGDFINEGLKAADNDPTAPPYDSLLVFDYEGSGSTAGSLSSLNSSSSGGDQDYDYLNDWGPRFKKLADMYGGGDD

T2: β-catenin (M. musculus, UniProt Q02248 1-781)
T2 sequence (looked up): T1 sequence (looked up) 1

T3: αT-catenin head•β-catenin complex (M. musculus, UniProt Q65CL1 1-659; Q02248 1-781)
T3 sequence (looked up) 1: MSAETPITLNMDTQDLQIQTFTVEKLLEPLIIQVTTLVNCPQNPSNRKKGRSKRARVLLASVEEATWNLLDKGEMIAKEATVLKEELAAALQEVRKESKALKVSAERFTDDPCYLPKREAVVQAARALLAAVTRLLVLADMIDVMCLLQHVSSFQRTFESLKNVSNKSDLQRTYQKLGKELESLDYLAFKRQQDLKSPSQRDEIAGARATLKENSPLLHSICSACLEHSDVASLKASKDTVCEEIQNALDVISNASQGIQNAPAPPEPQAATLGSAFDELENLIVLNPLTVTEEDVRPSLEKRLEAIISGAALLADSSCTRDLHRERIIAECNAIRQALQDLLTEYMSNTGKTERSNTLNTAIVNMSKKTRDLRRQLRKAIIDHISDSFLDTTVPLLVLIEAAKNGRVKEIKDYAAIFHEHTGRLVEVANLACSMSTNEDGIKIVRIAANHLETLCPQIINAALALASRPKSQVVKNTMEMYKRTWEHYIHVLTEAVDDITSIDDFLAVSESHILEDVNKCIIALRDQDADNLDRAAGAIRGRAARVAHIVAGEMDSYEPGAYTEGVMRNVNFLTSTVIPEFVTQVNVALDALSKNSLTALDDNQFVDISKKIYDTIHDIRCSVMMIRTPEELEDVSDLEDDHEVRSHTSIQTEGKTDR
T3 sequence (looked up) 2: T1 sequence (looked up) 1

T4: αT-catenin N2-M3 (aa147-626) (M. musculus, UniProt Q65CL1 147-626)
T4 sequence (looked up): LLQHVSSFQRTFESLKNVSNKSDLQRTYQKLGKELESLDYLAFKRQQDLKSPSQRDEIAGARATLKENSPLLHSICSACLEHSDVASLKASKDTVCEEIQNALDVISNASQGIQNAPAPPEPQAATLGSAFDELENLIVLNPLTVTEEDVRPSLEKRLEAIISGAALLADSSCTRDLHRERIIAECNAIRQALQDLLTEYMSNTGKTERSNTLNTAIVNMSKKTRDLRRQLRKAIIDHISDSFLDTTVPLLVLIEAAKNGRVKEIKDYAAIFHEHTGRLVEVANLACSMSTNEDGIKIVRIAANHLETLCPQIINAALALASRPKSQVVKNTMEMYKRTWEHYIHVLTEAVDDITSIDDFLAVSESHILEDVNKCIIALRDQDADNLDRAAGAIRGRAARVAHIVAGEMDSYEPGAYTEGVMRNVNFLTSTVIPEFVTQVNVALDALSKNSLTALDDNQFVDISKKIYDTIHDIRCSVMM

T5: 2I27-αT-catenin M1-M3(aa259-667)-2I27 (UniProt Q65CL1)
T5 sequence (Q9UI47 whole entry, species assumed, looked up): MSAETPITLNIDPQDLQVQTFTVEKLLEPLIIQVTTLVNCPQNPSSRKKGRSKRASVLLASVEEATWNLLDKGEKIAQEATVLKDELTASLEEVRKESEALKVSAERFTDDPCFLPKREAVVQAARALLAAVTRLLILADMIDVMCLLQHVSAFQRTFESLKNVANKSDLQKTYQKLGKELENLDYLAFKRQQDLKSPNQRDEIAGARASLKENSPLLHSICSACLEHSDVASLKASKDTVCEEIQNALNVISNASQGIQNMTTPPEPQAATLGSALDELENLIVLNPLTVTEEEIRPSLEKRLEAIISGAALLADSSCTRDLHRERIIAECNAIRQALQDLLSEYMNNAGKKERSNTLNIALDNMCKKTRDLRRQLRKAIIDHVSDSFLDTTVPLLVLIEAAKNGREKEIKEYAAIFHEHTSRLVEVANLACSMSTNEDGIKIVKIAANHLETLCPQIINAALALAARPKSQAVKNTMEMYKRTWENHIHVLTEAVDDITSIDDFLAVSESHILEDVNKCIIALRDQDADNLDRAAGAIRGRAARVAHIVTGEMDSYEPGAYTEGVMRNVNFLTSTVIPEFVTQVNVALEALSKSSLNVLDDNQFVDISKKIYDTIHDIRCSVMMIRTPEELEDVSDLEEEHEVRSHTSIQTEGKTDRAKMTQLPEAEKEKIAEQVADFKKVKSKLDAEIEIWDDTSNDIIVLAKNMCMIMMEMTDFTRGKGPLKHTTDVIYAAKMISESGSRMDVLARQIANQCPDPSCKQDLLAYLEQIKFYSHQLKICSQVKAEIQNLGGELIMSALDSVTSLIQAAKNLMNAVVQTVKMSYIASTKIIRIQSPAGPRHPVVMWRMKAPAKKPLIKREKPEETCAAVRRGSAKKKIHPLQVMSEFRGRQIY

T6: αT-catenin M1-M3 (aa260-626) (M. musculus, UniProt Q65CL1 260-626)
T6 sequence (looked up): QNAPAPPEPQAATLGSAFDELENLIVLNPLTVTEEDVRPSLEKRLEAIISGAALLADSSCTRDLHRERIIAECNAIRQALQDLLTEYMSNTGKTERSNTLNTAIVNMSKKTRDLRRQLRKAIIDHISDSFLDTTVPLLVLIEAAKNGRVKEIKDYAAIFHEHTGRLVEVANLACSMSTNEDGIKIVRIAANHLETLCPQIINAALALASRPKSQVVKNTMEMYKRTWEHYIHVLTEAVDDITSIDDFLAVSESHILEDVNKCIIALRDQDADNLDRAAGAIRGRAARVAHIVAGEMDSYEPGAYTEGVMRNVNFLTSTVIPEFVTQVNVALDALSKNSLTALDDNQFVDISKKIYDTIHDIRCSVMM

B1: αT-catenin V94D N1-N2 (domain or fragment, M. musculus, UniProt Q65CL1 1-259, looked up)
chain: MSAETPITLNMDTQDLQIQTFTVEKLLEPLIIQVTTLVNCPQNPSNRKKGRSKRARVLLASVEEATWNLLDKGEMIAKEATVLKEELAAALQEDRKESKALKVSAERFTDDPCYLPKREAVVQAARALLAAVTRLLVLADMIDVMCLLQHVSSFQRTFESLKNVSNKSDLQRTYQKLGKELESLDYLAFKRQQDLKSPSQRDEIAGARATLKENSPLLHSICSACLEHSDVASLKASKDTVCEEIQNALDVISNASQGI
B2: αT-catenin N1-N2 (aa1-259) (domain or fragment, M. musculus, UniProt Q65CL1 1-259, looked up)
chain: B1 chain with D94V
B3: αT-catenin head region (aa1-659) (domain or fragment, M. musculus, UniProt Q65CL1 1-659, looked up)
chain: T3 sequence (looked up) 1
B4: vinculin D1 (aa1-259) (domain or fragment, UniProt P12003 1-259, looked up)
chain: MPVFHTRTIESILEPVAQQISHLVIMHEEGEVDGKAIPDLTAPVSAVQAAVSNLVRVGKETVQTTEDQILKRDMPPAFIKVENACTKLVRAAQMLQADPYSVPARDYLIDGSRGILSGTSDLLLTFDEAEVRKIIRVCKGILEYLTVAEVVETMEDLVTYTKNLGPGMTKMAKMIDERQQELTHQEHRVMLVNSMNTVKELLPVLISAMKIFVTTKNTKSQGIEEALKNRNFTVEKMSAEINEIIRVLQLTSWDEDAWA

Key:
SEC = molecular target: the molecule itself; assay: SEC
[1] = molecular target: T1, β-catenin•N-cadherin cytoplasmic tail …; assay: ITC
β-catenin = molecular target: T2, β-catenin; assay: ITC
[2] = molecular target: T3, αT-catenin head•β-catenin complex; assay: ITC
[3] = molecular target: B3; assay: ITC
[4] = molecular target: T4, αT-catenin N2-M3 (aa147-626); assay: ITC
[5] = molecular target: T5, 2I27-αT-catenin M1-M3(aa259-667)-2I27; assay: ITC
[6] = molecular target: T6, αT-catenin M1-M3 (aa260-626); assay: ITC

Binder: B1
- stoichiometry N (SEC): 2

Binder: B2
- Kd [1]: 7 nM

Binder: B3
- Kd [1]: 5 to 6 nM
- Kd (β-catenin): ~250 nM

Binder: B4
- Kd [2]: ~3000 nM
- Kd [3]: ~5000 nM
- Kd [4]: 50 nM
- Kd [5]: 250 nM
- Kd [6]: 50 nM
